Tests used:
[1] = molecular target: T1, L-TAT-JNKI1 (i.e., L-TAT-JBD20)
T1 chain: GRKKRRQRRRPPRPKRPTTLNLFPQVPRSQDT

[2] = molecular target: T2, D-TAT-JNKI1 (i.e., D-TAT-JBD20)
T2 chain: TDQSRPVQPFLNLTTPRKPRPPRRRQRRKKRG

L-TAT-IB2 peptide = molecular target: T3, L-TAT-IB2 peptide
T3 chain: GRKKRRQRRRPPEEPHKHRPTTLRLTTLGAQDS

D-TAT-IB1 peptide = molecular target: T4, D-TAT-IB1 peptide
T4 chain: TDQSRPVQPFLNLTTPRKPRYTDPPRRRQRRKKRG

L-TAT-IB1 peptide = molecular target: T5, L-TAT-IB1 peptide
T5 chain: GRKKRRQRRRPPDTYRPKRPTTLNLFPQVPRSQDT

B1: MKK4 kinase (protein)
chain: MAAPSPSGGGGSGGGSGSGTPGPVGSPAPGHPAVSSMQGKRKALKLNFANPPFKSTARFTLNPNPTGVQNPHIERLRTHSIESSGKLKISPEQHWDFTAEDLKDLGEIGRGAYGSVNKMVHKPSGQIMAVKRIRSTVDEKEQKQLLMDLDVVMRSSDCPYIVQFYGALFREGDCWICMELMSTSFDKFYKYVYSVLDDVIPEEILGKITLATVKALNHLKENLKIIHRDIKPSNILLDRSGNIKLCDFGISGQLVDSIAKTRDAGCRPYMAPERIDPSASRQGYDVRSDVWSLGITLYELATGRFPYPKWNSVFDQLTQVVKGDPPQLSNSEEREFSPSFINFVNLCLTKDESKRPKYKELLKHPFILMYEERAVEVACYVCKILDQMPATPSSPMYVD
Q: Which “kinase activity towards its substrate, panel of 40 kinases (10 µM peptides, 10 µM ATP)” value (“kinase activity towards its substrate” below) [1] does the source give for B1 here?
A: the JNKI peptides had an affect on the JNKs and MKK4 and MKK7 kinases

Q: And the “kinase activity towards its substrate” value [2]?
A: the JNKI peptides had an affect on the JNKs and MKK4 and MKK7 kinases

B2: MKK7 kinase (protein)
chain: MAASSLEQKLSRLEAKLKQENREARRRIDLNLDISPQRPRPTLQLPLANDGGSRSPSSESSPQHPTPPARPRHMLGLPSTLFTPRSMESIEIDQKLQEIMKQTGYLTIGGQRYQAEINDLENLGEMGSGTCGQVWKMRFRKTGHVIAVKQMRRSGNKEENKRILMDLDVVLKSHDCPYIVQCFGTFITNTDVFIAMELMGTCAEKLKKRMQGPIPERILGKMTVAIVKALYYLKEKHGVIHRDVKPSNILLDERGQIKLCDFGISGRLVDSKAKTRSAGCAAYMAPERIDPPDPTKPDYDIRADVWSLGISLVELATGQFPYKNCKTDFEVLTKVLQEEPPLLPGHMGFSGDFQSFVKDCLTKDHRKRPKYNKLLEHSFIKRYETLEVDVASWFKDVMAKTESPRTSGVLSQPHLPFFR
Q: For B2, which “kinase activity towards its substrate” value [1] is on record?
A: the JNKI peptides had an affect on the JNKs and MKK4 and MKK7 kinases

Q: What about the “kinase activity towards its substrate” value [2] of the same protein?
A: the JNKI peptides had an affect on the JNKs and MKK4 and MKK7 kinases

B3: recombinant nonactivated JNK2 (protein)
chain: MSDSKCDSQFYSVQVADSTFTVLKRYQQLKPIGSGAQGIVCAAFDTVLGINVAVKKLSRPFQNQTHAKRAYRELVLLKCVNHKNIISLLNVFTPQKTLEEFQDVYLVMELMDANLCQVIHMELDHERMSYLLYQMLCGIKHLHSAGIIHRDLKPSNIVVKSDCTLKILDFGLARTACTNFMMTPYVVTRYYRAPEVILGMGYKENVDIWSVGCIMGELVKGCVIFQGTDHIDQWNKVIEQLGTPSAEFMKKLQPTVRNYVENRPKYPGIKFEELFPDWIFPSESERDKIKTSQARDLLSKMLVIDPDKRISVDEALRHPYITVWYDPAEAEAPPPQIYDAQLEEREHAIEEWKELIYKEVMDWEERSKNGVVKDQPSDAAVSSNATPSQSSSINDISSMSTEQTLASDTDSSLDASTGPLEGCR
Q: With B3 as the protein, how does the “phosphorylation of c-Jun, ATF2 and Elk1 by recombinant JNK2, solid phase kinase assay (peptide 0-25 µM)” value (L-TAT-IB2 peptide) read?
A: Nearly complete inhibition of c-Jun, ATF2 and Elk1 phosphorylation by JNKs was observed at TAT-IB peptide doses as low as 2.5 µM

Q: What about the “GST-Jun (a.a. 1-73) phosphorylation by recombinant JNK2, fold less efficient than L-TAT-IB1 (0-250 µM dosage study)” value (D-TAT-IB1 peptide) of the same protein?
A: approximately 10-20 fold less efficiently than L-TAT-IB1

Q: What about the “phosphorylation of c-Jun, ATF2 and Elk1 by recombinant JNK2, solid phase kinase assay (peptide 0-25 µM)” value (L-TAT-IB1 peptide) of the same protein?
A: Nearly complete inhibition of c-Jun, ATF2 and Elk1 phosphorylation by JNKs was observed at TAT-IB peptide doses as low as 2.5 µM

B4: recombinant nonactivated JNK1 (protein)
chain: MSRSKRDNNFYSVEIGDSTFTVLKRYQNLKPIGSGAQGIVCAAYDAILERNVAIKKLSRPFQNQTHAKRAYRELVLMKCVNHKNIIGLLNVFTPQKSLEEFQDVYIVMELMDANLCQVIQMELDHERMSYLLYQMLCGIKHLHSAGIIHRDLKPSNIVVKSDCTLKILDFGLARTAGTSFMMTPYVVTRYYRAPEVILGMGYKENVDLWSVGCIMGEMVCHKILFPGRDYIDQWNKVIEQLGTPCPEFMKKLQPTVRTYVENRPKYAGYSFEKLFPDVLFPADSEHNKLKASQARDLLSKMLVIDASKRISVDEALQHPYINVWYDPSEAEAPPPKIPDKQLDEREHTIEEWKELIYKEVMDLEERTKNGVIRGQPSPLGAAVINGSQHPSSSSSVNDVSSMSTDPTLASDTDSSLEAAAGPLGCCR
Q: What does the source list for B4?
A: phosphorylation of c-Jun, ATF2 and Elk1 by recombinant JNK1, solid phase kinase assay (peptide 0-25 µM) (L-TAT-IB2 peptide): Nearly complete inhibition of c-Jun, ATF2 and Elk1 phosphorylation by JNKs was observed at TAT-IB peptide doses as low as 2.5 µM; GST-Jun (a.a. 1-73) phosphorylation by recombinant JNK1, fold less efficient than L-TAT-IB1 (0-250 µM dosage study) (D-TAT-IB1 peptide): approximately 10-20 fold less efficiently than L-TAT-IB1; phosphorylation of c-Jun, ATF2 and Elk1 by recombinant JNK1, solid phase kinase assay (peptide 0-25 µM) (L-TAT-IB1 peptide): Nearly complete inhibition of c-Jun, ATF2 and Elk1 phosphorylation by JNKs was observed at TAT-IB peptide doses as low as 2.5 µM

B5: recombinant nonactivated JNK3 (protein)
chain: MSLHFLYYCSEPTLDVKIAFCQGFDKQVDVSYIAKHYNMSKSKVDNQFYSVEVGDSTFTVLKRYQNLKPIGSGAQGIVCAAYDAVLDRNVAIKKLSRPFQNQTHAKRAYRELVLMKCVNHKNIISLLNVFTPQKTLEEFQDVYLVMELMDANLCQVIQMELDHERMSYLLYQMLCGIKHLHSAGIIHRDLKPSNIVVKSDCTLKILDFGLARTAGTSFMMTPYVVTRYYRAPEVILGMGYKENVDIWSVGCIMGEMVRHKILFPGRDYIDQWNKVIEQLGTPCPEFMKKLQPTVRNYVENRPKYAGLTFPKLFPDSLFPADSEHNKLKASQARDLLSKMLVIDPAKRISVDDALQHPYINVWYDPAEVEAPPPQIYDKQLDEREHTIEEWKELIYKEVMNSEEKTKNGVVKGQPSPSGAAVNSSESLPPSSSVNDISSMSTDQTLASDTDSSLEASAGPLGCCR
Q: How did the “phosphorylation of Elk1 by recombinant JNK3, solid phase kinase assay” value (L-TAT-IB2 peptide) turn out when B5 was run?
A: a marked exception was the absence of TAT-IB inhibition of JNK3 phosphorylation of Elk1

Q: And the “phosphorylation of c-Jun and ATF2 by recombinant JNK3, solid phase kinase assay (peptide 0-25 µM)” value (L-TAT-IB2 peptide)?
A: Nearly complete inhibition of c-Jun, ATF2 and Elk1 phosphorylation by JNKs was observed at TAT-IB peptide doses as low as 2.5 µM

Q: What about the “GST-Jun (a.a. 1-73) phosphorylation by recombinant JNK3, fold less efficient than L-TAT-IB1 (0-250 µM dosage study)” value (D-TAT-IB1 peptide) of the same protein?
A: approximately 10-20 fold less efficiently than L-TAT-IB1

Q: What about the “phosphorylation of Elk1 by recombinant JNK3, solid phase kinase assay” value (L-TAT-IB1 peptide) of the same protein?
A: a marked exception was the absence of TAT-IB inhibition of JNK3 phosphorylation of Elk1

Q: And the “phosphorylation of c-Jun and ATF2 by recombinant JNK3, solid phase kinase assay (peptide 0-25 µM)” value (L-TAT-IB1 peptide)?
A: Nearly complete inhibition of c-Jun, ATF2 and Elk1 phosphorylation by JNKs was observed at TAT-IB peptide doses as low as 2.5 µM

B6: recombinant JNK1α1 (protein)
chain: MSRSKRDNNFYSVEIGDSTFTVLKRYQNLKPIGSGAQGIVCAAYDAILERNVAIKKLSRPFQNQTHAKRAYRELVLMKCVNHKNIIGLLNVFTPQKSLEEFQDVYIVMELMDANLCQVIQMELDHERMSYLLYQMLCGIKHLHSAGIIHRDLKPSNIVVKSDCTLKILDFGLARTAGTSFMMTPYVVTRYYRAPEVILGMGYKENVDLWSVGCIMGEMVCHKILFPGRDYIDQWNKVIEQLGTPCPEFMKKLQPTVRTYVENRPKYAGYSFEKLFPDVLFPADSEHNKLKASQARDLLSKMLVIDASKRISVDEALQHPYINVWYDPSEAEAPPPKIPDKQLDEREHTIEEWKELIYKEVMDLEERTKNGVIRGQPSPLAQVQQ
Q: What does the source list for B6?
A: in vitro phosphorylation of GST-Jun and GST-Elk1 by JNK1α1, kinase assay [1]: their ability to prevent the phosphorylation in vitro of known JNK targets c-Jun and Elk1 using JNK1α1; in vitro phosphorylation of GST-Jun and GST-Elk1 by JNK1α1, kinase assay [2]: their ability to prevent the phosphorylation in vitro of known JNK targets c-Jun and Elk1 using JNK1α1

Reference: patent publication US20040082509
